Laboratory results as given in article doi:10.1101/2021.09.29.461692 (bioRxiv, 2021).
Residue numbers refer to the chain shown, from its start. In names and notes the source's numbering stands.

B1: ketosteroid isomerase (KSI) Y32F/Y57F (enzyme, Pseudomonas putida)
chain: MNLPTAQEVQGLMARYIELVDVGDIEAIVQMFADDATVEDPFGQPPIHGREQIAAFFRQGLGGGKVRACLTGPVRASHNGCGAMPFRVEMVWNGQPCALDVIDVMRFDEHGRIQTMQAYWSEVNLSVREPQ
B2: ketosteroid isomerase (KSI) Y57F (enzyme, Pseudomonas putida)
chain: B1 chain with F32Y
B3: ketosteroid isomerase (KSI) Y57F/D40N (enzyme, Pseudomonas putida)
chain: LPTAQEVQGLMARYIELVDVGDIEAIVQMYADDATVENPFGQPPIHGREQIAAFFRQGLGGGKVRACLTGPVRASHNGCGAMPFRVEMVWNGQPCALDVIDVMRFDEHGRIQTMQAYWSEVNLSVREPQ

Molecular target: the molecule itself
Assay: crystal structure

| Protein | stoichiometry N |
| --- | --- |
| B1 | 2 |
| B2 | 2 |
| B3 | 2 |
